Measured values taken from patent US6967100B2, “Pancreatic islet cell growth factors” (The Walter and Eliza Hall Institute of Medical Research, priority 2000, dated 2005).

Legend:
Type in all cases: cell-based
[1] = tested on: E15.5 CBA mouse fetal pancreas cells; assay: Cystic colony formation of E15.5 fetal mouse pancreas cells in laminin-1 overlay culture; conditions: BMP alone
[2] = tested on: E15.5 CBA mouse fetal pancreas cells; assay: as above; conditions: laminin-1 160 μg/ml
Experimental: Pancreata were dissected from embryonic day (E)15.5 CBA mouse fetuses and dissociated into single cells as described (Jiang et al., 1999). Briefly, dissected pancreas was digested with trypsin/EDTA for 15 minutes at 37° C. in a shaking water bath. Cells were counted in a haemocytometer and viability determined by trypan blue dye exclusion. Each fetal pancreas yielded 50,000 viable cells (48,509±11,299, n=14). Dissociated cells were plated in 8 well chamber slides (Nunc, Naperville, USA) at 7.5×10^4 cells/well in 0.3 ml AIM V medium supplemented with N-2 (1:100, Gibco BRL Life Technologies, Gaithersburg, USA), 500 UI/ml penicillin and 500 μg/ml streptomycin. Laminin-1 (160 μg/ml), purified from murine Engelbreth-Holm-Swarm tumor basement membrane (Becton Dickinson Labware, Bedford, USA), was overlayed on cells in the presence of various growth factors. Cultures were incubated in 10% CO2 90% air at 37° C., for up to 6 days. Recombinant human BMP 6 and BMP 5, recombinant human TGF-β1 and recombinant activin A were purchased from R&D Systems (Minneapolis, USA). These factors, dissolved at a concentration of 10 ng/μl in mouse tonicity phosphate buffered saline (PBS) containing 0.1% w/v bovine serum albumin (BSA), were added at the start of culture. Phase contrast images of colonies were photographed with Olympus IX70 digitized camera.
Colony formation was assessed at day 6 of culture. A colony was defined as a cellular sphere ≧30 μm in diameter, which contained more than 20 cells. The number of colonies per well was counted directly under a inverted microscope at ×10. Colony counts were performed using a blind design.

C2C12 myoblasts = assay: C2C12 cell BMP bioassay (transformation of myoblasts into alkaline phosphatase-containing osteoblasts); conditions: conditioned medium of stably transfected CHO cells, compared to medium of untransfected CHO cells
Experimental: BMP activity was measured in the C2C12 cell bioassay, in which BMPs transform C2C12 myoblasts into alkaline phosphatase-containing osteoblasts (Katagiri et al., 1994). Briefly, CHO cells were plated at a density of around 5×10^6 per 75 cm^2 flask in serum-free HYBRIDOMA medium (Gibco BRL Life Technology) (SFHM) containing 10% v/v FCS. Once the cells had reached confluency, the medium was removed, the cells washed twice with SFHM and 10 ml of SFHM then added to each flask. The cells were cultured for four days and the conditioned medium collected, filtered through a 2 micron filter and stored at 4° C.
2×10^3 C2C12 cells were plated into each well of a 96-well tissue culture plate in DME/10% v/v FCS. Twenty-four hours later, the medium was removed and replaced with 100 μl SFHM/1% v/v FCS. 50 μl of each conditioned medium was added in duplicate to the top row of the 96-well plate and the volume of these wells then made up to 200 μl. Using a multi-channel pipette, 100 μl from each well was then serially transferred to subsequent rows thus diluting the conditioned medium 2-fold with each transfer. After incubation for five days, the media were discarded and the cells washed with normal saline. Cells were lysed for 10 mins at room temperature (RT) in 100 μl 0.5% v/v TritonX-100 and 100 mM diethanolamine (pH 9.5) in normal saline. To each well was then added an aqueous solution containing 10 mM diethanolamine, 1 mg/ml p-nitrophenyl phosphate (PNPP) and 0.5 mM MgCl2. The yellow reaction product catalyzed by alkaline phosphatase was allowed to develop for 10-60 mins before reading absorption at 415 nm.

B1: BMP 6: recombinant human BMP 6 purchased from R&D Systems (protein, UniProt P22004 375-513, looked up)
Bone morphogenetic protein 6: SASSRRRQQSRNRSTQSQDVARVSSASDYNSSELKTACRKHELYVSFQDLGWQDWIIAPKGYAANYCDGECSFPLNAHMNATNHAIVQTLVHLMNPEYVPKPCCAPTKLNAISVLYFDDNSNVILKKYRNMVVRACGCH
colony formation in the absence of laminin-1 [1]: no effect | concentration of maximal stimulation of colony formation ([2]; day 6, fewer colonies at higher concentrations): 10 ng/mL | formation of cystic colonies in the presence of laminin-1 ([2]; up to 6 days): synergized with laminin-1 to promote formation of cystic colonies | BMP activity of conditioned medium (alkaline phosphatase activity of C2C12 cells) (C2C12 myoblasts): significant BMP activity was never detected
